Experimental findings from patent publication US20230088277A1 (SHANGHAI SYNVIDA BIOTECHNOLOGY, published 2023) are described below.

T1: 6×His tag human Pear1 extracellular segment (Leu-21-Ser; 754) (human, UniProt Q5VY43 21-754)
T1 construct: range 21-754; The ELISA and the Biacore test only say 'human Pear1 ECD protein' / 'extracellular segment'; also called human Pear1 ECD protein; human Pear1ECD protein; not shown: 6×His tag
T1 sequence (looked up): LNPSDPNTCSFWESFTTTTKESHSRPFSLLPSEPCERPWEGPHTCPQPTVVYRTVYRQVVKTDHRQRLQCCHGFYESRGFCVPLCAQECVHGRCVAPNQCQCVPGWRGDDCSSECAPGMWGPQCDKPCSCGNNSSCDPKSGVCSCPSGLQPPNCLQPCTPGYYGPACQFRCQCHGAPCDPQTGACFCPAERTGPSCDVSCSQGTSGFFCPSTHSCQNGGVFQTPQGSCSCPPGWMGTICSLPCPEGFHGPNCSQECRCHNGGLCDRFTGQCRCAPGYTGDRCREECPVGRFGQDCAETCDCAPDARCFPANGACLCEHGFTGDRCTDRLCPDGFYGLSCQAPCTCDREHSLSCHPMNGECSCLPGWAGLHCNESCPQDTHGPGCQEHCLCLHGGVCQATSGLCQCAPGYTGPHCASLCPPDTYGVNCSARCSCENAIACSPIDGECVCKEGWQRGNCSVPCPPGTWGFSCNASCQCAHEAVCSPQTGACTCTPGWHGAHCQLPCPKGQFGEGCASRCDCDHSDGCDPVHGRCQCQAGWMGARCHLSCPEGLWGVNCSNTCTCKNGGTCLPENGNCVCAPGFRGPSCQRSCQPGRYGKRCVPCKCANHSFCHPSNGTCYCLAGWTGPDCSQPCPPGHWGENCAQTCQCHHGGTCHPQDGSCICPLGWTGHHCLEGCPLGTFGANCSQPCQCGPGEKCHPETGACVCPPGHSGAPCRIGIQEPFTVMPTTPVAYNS

B1: LF15 (antibody, V domains shown)
VH: EVQLQQSGPELVKPGASMKISCKASGYSFTGYTMNWVKQSHGENLEWIGVINPYNGGTSYNQKFKGKATLTVDKSFSTAYMEILSLTSEDSAVYYCSRGGGNSWFAYWGQGTLVTVSA
VL: DIQMTQTSSYLSVSLGGRVTITCKASDHINNWLAWYQQKPGNAPRLLISGATSLETGVPSRFSGSGSGTDYSLTITSLQTEDVATYYCQQYWSIPTFGGGTRLEIK
notes: Mouse monoclonal antibody from hybridoma
B2: LF2 (antibody, V domains shown)
VH: EVQLQQSGPELVKPGASMKISCKASGYSFTGYPMNWVRQSHVKNLEWIGVINPYNGGTSYNQKFKGKATLTVDKSSSTAYIELLSLTSDDSAVYYCARGGVRPFAYWGQGTLVTVSA
VL: DIQMTQTSSSFSVSLGDRVTITCKASEDIYNRLAWYQQKPGNAPRLLISGATSLETGVPSRFSGSGSGNDYTLSITSLQTEDVATYYCQQYWSTPTFGAGTKLELQ
notes: as for B1
B3: LF7 (antibody, V domains shown)
VH: B2 VH with V42G, P53S, T58A, S77N, T78I, A79V, Y80H, I81M, D89E
VL: DIVMTQSQKFMSTSVGDRVSVTCKASQNVDTNVAWYQQKPGQSPKALIYSASYRYSGVPDRFTGSGSGTDFTLTISNVQSEDLAEYFCQQYDSYPYTFGGGTKLEIR
notes: as for B1
B4: LF11 (antibody, V domains shown)
VH: B2 VH with R38K, S40T, V42G, V50L, I81M, D90E, A105D, Y106F
VL: DIVITQSPAIMSASPGEKVTMTCSARSSVSYMYWYQQKPGSSPRLLIYDTSKLASGVPVRFSGSGSGTSYSLTISRMEAEDAATYFCQQWSSYPPTFGGGTKLEIK
notes: as for B1
B5: LF3 (antibody, V domains shown)
VH: B2 VH with R38K, S40T, V42G, V50L, I81M, D90E, A105D, Y106F
VL: B2 VL
notes: as for B1
B6: LF2-hIgG4 (antibody, V domains shown)
VH: B2 VH
VL: B2 VL
notes: read from the name as the variable domains of LF2 on human IgG4 constant regions; also called LF2-hlgG 4
B7: hLF109 (antibody, V domains shown)
VH: QVQLVQSGAEVKKPGASVKVSCKASGYTFTGYPMNWVRQAPGQNLEWMGVINPYNGGTSYNQKFKGRVTLTVDKSASTAYMELSSLRSEDTAVYYCARGGVRPFAYWGQGTLVTVSS
VL: DIQMTQSPSSLSASVGDRVTITCKASEDIYNRLAWYQQKPGKAPKLLISGATSLETGVPSRFSGSGSGNDFTLTISSLQPEDFATYYCQQYWSTPTFGQGTKLEIK
notes: Humanized antibody
B8: hLF105 (antibody, V domains shown)
VH: B7 VH with Q43K, N44R, V68A, K74T
VL: B7 VL
notes: Humanized antibody
B9: hLF107 (antibody, V domains shown)
VH: B7 VH with Q43K, N44R, V68A, K74T
VL: B7 VL with F71Y
notes: Humanized antibody
B10: hLF101 (antibody, V domains shown)
VH: B7 VH with V72R
VL: B7 VL
notes: Humanized antibody (CDR grafting with back mutations)
B11: hLF116 (antibody, V domains shown)
VH: B7 VH with Q43K, V68A
VL: B7 VL with K42N, F71Y
notes: Humanized antibody
B12: hLF102 (antibody, V domains shown)
VH: B7 VH with V72R
VL: B7 VL with K42N
notes: Humanized antibody
B13: hLF115 (antibody, V domains shown)
VH: B7 VH with Q43K, V68A
VL: B7 VL with F71Y
notes: Humanized antibody
B14: hLF110 (antibody, V domains shown)
VH: B7 VH
VL: B7 VL with K42N
notes: Humanized antibody; also called hLFHO
B15: hLF104 (antibody, V domains shown)
VH: B7 VH with V72R
VL: B7 VL with K42N, F71Y
notes: Humanized antibody
B16: hLF111 (antibody, V domains shown)
VH: B7 VH
VL: B7 VL with F71Y
notes: Humanized antibody
B17: hLF103 (antibody, V domains shown)
VH: B7 VH with V72R
VL: B7 VL with F71Y
notes: Humanized antibody
B18: hLF108 (antibody, V domains shown)
VH: B7 VH with Q43K, N44R, V68A, K74T
VL: B7 VL with K42N, F71Y
notes: Humanized antibody
B19: hLF106 (antibody, V domains shown)
VH: B7 VH with Q43K, N44R, V68A, K74T
VL: B7 VL with K42N
notes: Humanized antibody
B20: hLF112 (antibody, V domains shown)
VH: B7 VH
VL: B7 VL with K42N, F71Y
notes: Humanized antibody
B21: hLF114 (antibody, V domains shown)
VH: B7 VH with Q43K, V68A
VL: B7 VL with K42N
notes: Humanized antibody
B22: hLF113 (antibody, V domains shown)
VH: B7 VH with Q43K, V68A
VL: B7 VL
notes: Humanized antibody

Changes are numbered by the printed parent chain.

One assay deals with T1, 6×His tag human Pear1 extracellular …. The experiment in a line: ELISA, plate coated with human Pear1 ECD. Here is the method:
FIG. 6 The comparison of the affinities of the anti-human Pear1 antibodies to human Pear1. The ELISA plate was coated with human Pear1 ECD proteins and the reactions were conducted between antibodies at different concentrations (2000 ng/mL, 1000 ng/mL, 500 ng/mL, 250 ng/mL, 125 ng/mL, 62.5 ng/mL, 31.25 ng/mL, 15.625 ng/mL, 7.8125 ng/mL, 3.90625 ng/mL, 1.953125 ng/mL, 0.9765625 ng/mL) and the human Pear1 ECD proteins. OD value was measured to obtain the EC 50 value of the antigen-antibody combination
8.2.1 Comparison of antigen binding ability of these antibodies.
In general terms: In an ELISA, binding on a coated surface is turned into a signal by an enzyme label.
The term EC50 denotes the concentration that produces a half-maximal response. As to B1, the half-maximal effective concentration (EC50) came to 0.0807 µg/mL.
Take B2: the EC50 was found to be 0.0111 µg/mL.
On the same count and under the same terms, under B3 stands 0.0336 µg/mL; under B4, 0.00891 µg/mL; under B5, 0.00927 µg/mL.

For another assay the target is unchanged. The assay is described as follows: SPR (Biacore); antibody as ligand, Pear1 extracellular segment. On the technique in general: SPR reads the build-up and loss of mass on a sensor chip optically.
Usually Kd stands for the constant that tells how readily two partners part at equilibrium. For orientation: koff means the rate constant with which the complex falls apart. A high value points to a short-lived complex. By kon is commonly meant a measure of how fast the partners come together. A low value points to slow association. For the molecule B6, binding was put at a Kd of 3.52 nM, the koff amounted to 0.000187 s⁻¹, the on-rate constant (kon) came out at 53100 M⁻¹ s⁻¹ and the t1/2 is 61.8 min.
Regarding B7, the Kd is 6.14 nM, the dissociation rate constant (koff) came to 0.000249 s⁻¹, the kon is 40500 M⁻¹ s⁻¹ and the t1/2 was determined as 46.4 min.
Take B8: binding was characterised by a dissociation constant (Kd) of 3.82 nM, the koff was 0.000176 s⁻¹, the on-rate (kon) was 46200 M⁻¹ s⁻¹ and the t1/2 came to 65.6 min.
Consider B9, for which the affinity, expressed as Kd, was 6.74 nM; the off-rate constant (koff) is 0.000345 s⁻¹; the association rate constant (kon) is 51200 M⁻¹ s⁻¹; the t1/2 turned out to be 33.5 min.
B10: the Kd turned out to be 7.67 nM, the dissociation rate constant (koff) turned out to be 0.000393 s⁻¹, the kon came to 51200 M⁻¹ s⁻¹ and the t1/2 was 29.4 min.
For B11 the same measures were 5.09 nM, 0.000221 s⁻¹, 43400 M⁻¹ s⁻¹ and 52.3 min.
Regarding B12, the equilibrium dissociation constant (Kd) is 7.87 nM, the koff amounted to 0.000395 s⁻¹, the kon is 50200 M⁻¹ s⁻¹ and the t1/2 was found to be 29.2 min.
Turning to B13, the affinity, expressed as Kd, was 5.31 nM; the koff was 0.000235 s⁻¹; the kon was determined as 44200 M⁻¹ s⁻¹; the t1/2 is 49.2 min.
B14: binding was characterised by a dissociation constant (Kd) of 5.42 nM, the koff amounted to 0.000236 s⁻¹, the kon was 43500 M⁻¹ s⁻¹ and the t1/2 came to 49 min.
B15 yielded a dissociation constant (Kd) of 13.3 nM, a koff of 0.000506 s⁻¹, an association rate constant (kon) of 38000 M⁻¹ s⁻¹ and a t1/2 of 22.8 min.
The molecule B16 yielded a Kd of 6.87 nM, an off-rate constant (koff) of 0.000271 s⁻¹, a kon of 39500 M⁻¹ s⁻¹ and a t1/2 of 42.6 min.
Take B17: the affinity, expressed as Kd, was 19 nM; the koff came to 0.000532 s⁻¹; the association rate constant (kon) was found to be 28000 M⁻¹ s⁻¹; the t1/2 was 21.7 min.
B18 yielded a Kd of 5.98 nM, a koff of 0.000307 s⁻¹, a kon of 51300 M⁻¹ s⁻¹ and a t1/2 of 37.7 min.
The molecule B19 yielded a Kd of 5.8 nM, a koff of 0.000233 s⁻¹, a kon of 40100 M⁻¹ s⁻¹ and a t1/2 of 49.7 min.
For B20, in that order: 4.99 nM, 0.000237 s⁻¹, 47500 M⁻¹ s⁻¹ and 48.7 min.
B21: binding was put at a Kd of 5.09 nM, the koff stood at 0.000232 s⁻¹, the kon worked out at 45600 M⁻¹ s⁻¹ and the t1/2 was found to be 49.8 min.
Consider B22, for which binding was characterised by a dissociation constant (Kd) of 4.28 nM, the koff was determined as 0.000201 s⁻¹, the on-rate (kon) came out at 47000 M⁻¹ s⁻¹ and the t1/2 is 57.4 min.
